T1: C-terminus-biotin labeled compound 1 (an N-terminus peptide of FGF-8; SEQ ID NO:15) (human, C-terminus-biotin labeled)
T1 construct: also called FGF-8 peptide
T1 peptide: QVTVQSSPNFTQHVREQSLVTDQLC

T2: BSA-compound 1 conjugate (human FGF-8 peptide Compound 1, SEQ ID NO:15, conjugated to bovine serum albumin) (human, conjugated to bovine serum albumin through SMCC)
T2 construct: The BSA carrier is not written as a chain
T2 peptide: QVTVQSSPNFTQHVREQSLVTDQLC

T3: FGF-8 (manufactured by R&D) (UniProt P55075-3 23-215, limits assumed)
T3 sequence (looked up): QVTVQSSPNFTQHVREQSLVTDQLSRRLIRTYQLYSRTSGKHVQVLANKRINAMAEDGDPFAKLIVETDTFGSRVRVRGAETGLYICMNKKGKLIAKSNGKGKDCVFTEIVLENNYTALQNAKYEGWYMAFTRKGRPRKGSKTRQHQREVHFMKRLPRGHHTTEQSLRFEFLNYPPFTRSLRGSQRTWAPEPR


Experiments:
[1] = target: T1, C-terminus-biotin labeled compound 1 …; assay: BIAcore 2000, C-terminus-biotin labeled FGF-8 peptide on SA chip, antibody as analyte, RU compared
Procedure: In order to examine the activity of various anti-FGF-8 CDR-grafted antibodies obtained in the item 5 of Example 3 to bind to FGF-8 in more detail, activities of various anti-FGF-8 CDR-grafted antibodies to bind to FGF-8 were measured and compared as follows by using BIAcore 2000 (manufactured by BIACORE). The CHO/DG44-derived anti-FGF-8 chimeric antibody KM3034 obtained in the item 3(1) of Example 1 was used as a positive control.
Hereinbelow, HBS-EP (manufactured by Pharmacia) was used as the buffer solution for dilution of samples and during the measurement. First, a sensor tip SA (manufactured by BIACORE) was set, and 5 μl of a C-terminus-biotin labeled compound 1 (an N-terminus peptide of FGF-8; SEQ ID NO:15) prepared to a solution of 0.05 μg/ml was added thereto at a flow rate of 20μl/minute. Thereafter, the tip surface was washed by adding 5 μl of 10 mmol/l Glycine-HCl buffer (pH 1.5) continuously twice. Immobilized amount of the FGF-8 peptide was 35 RU.
To the FGF-8 peptide immobilized flow cell, 60 μl of each antibody solution was added at a flow rate of 20 μl/minute, and then the dissociation reaction was monitored for 3 minutes. After the dissociation reaction, the tip surface was regenerated by adding 20 μl of 10 mmol/l Glycine-HCl buffer (pH 1.5) continuously twice. This cycle was carried out for antibody solutions of various concentrations (50 to 1.85 μg/ml), and a sensorgram at each concentration was obtained. The sensorgram of each antibody was made into a sensorgram of specific reaction by subtracting a sensorgram obtained using a chimeric antibody KM871 for GD3 [Cancer Immunol. Immunother., 36, 373 (1993)] as a negative control.

[2] = target: T2, BSA-compound 1 conjugate (human FGF-8 …); assay: ELISA, plate-coated BSA-compound 1 conjugate, anti-human IgG-peroxidase detection; positive control
Procedure: The conjugate prepared in the above was dispensed at 50 μl/well into a 96 well plate for ELISA (manufactured by Greiner) at a concentration of 0.5 to 1.0 μg/ml and allowed to stand for adsorption overnight at 4° C. After washing with PBS, 1% BSA-containing PBS (BSA-PBS) was added at 100 μl/well and allowed for blocking of remaining active groups to react at room temperature for 1 hour. After washing each well with 0.05% Tween-containing PBS (Tween-PBS), culture supernatants of transformants or purified antibodies were added at 50 μl/well and allowed to react at room temperature for 1 hour. After the reaction, each well was washed with Tween-PBS and then a peroxidase-labeled goat anti-human IgG (H & L) antibody solution (manufactured by American Qualex) diluted 3,000 to 6,000-folds with BSA-PBS was added as a secondary antibody solution at 50 μl/well and allowed to react at room temperature for 1 hour. […] Thereafter, absorbance at 415 nm (OD415) was measured.
The activity of various anti-FGF-8 CDR-grafted antibodies obtained in the item 4 of Example 2 to bind to FGF-8 was measured by the ELISA described in the item 2(6) of Example 1. […]

[3] = target: T2, BSA-compound 1 conjugate (human FGF-8 …); assay: ELISA, plate-coated BSA-compound 1 conjugate, anti-human IgG-peroxidase detection
Procedure: The conjugate prepared in the above was dispensed at 50 μl/well into a 96 well plate for ELISA (manufactured by Greiner) at a concentration of 0.5 to 1.0 μg/ml and allowed to stand for adsorption overnight at 4° C. After washing with PBS, 1% BSA-containing PBS (BSA-PBS) was added at 100 μl/well and allowed for blocking of remaining active groups to react at room temperature for 1 hour. After washing each well with 0.05% Tween-containing PBS (Tween-PBS), culture supernatants of transformants or purified antibodies were added at 50 μl/well and allowed to react at room temperature for 1 hour. After the reaction, each well was washed with Tween-PBS and then a peroxidase-labeled goat anti-human IgG (H & L) antibody solution (manufactured by American Qualex) diluted 3,000 to 6,000-folds with BSA-PBS was added as a secondary antibody solution at 50 μl/well and allowed to react at room temperature for 1 hour. After the reaction and subsequent washing with Tween-PBS, an ABTS substrate solution [a solution prepared by dissolving 0.55 g of 2,2′-azinobis(3-ethylbenzothiazoline-6-sulfonic acid) ammonium in 1 L of 0.1 M citrate buffer (pH 4.2) and adding 1 μl/ml hydrogen peroxide just before use] was added at 50 μl/well for color development, and the reaction was stopped by adding 5% SDS solution at 50 µl/well. Thereafter, absorbance at 415 nm (OD415) was measured.
The activity of various anti-FGF-8 CDR-grafted antibodies obtained in the item 4 of Example 2 to bind to FGF-8 was measured by the ELISA described in the item 2(6) of Example 1. The YB2/0-derived anti-FGF-8 chimeric antibody KM3334 obtained in the item 3(2) of Example 1 was used as a positive control.

[4] = target: T3, FGF-8 (manufactured by R&D); assay: cell-based or functional assay

Row | binding result [1] | binding result [3] | Binder | other results
1 | binds |  | anti-FGF-8 CDR-grafted antibody HV0LV0/CHO (antibody, V domains shown, CHO/DG44-derived, vector pKANTEX1334HV0LV0) VH: QVQLVQSGAEVKKPGASVKVSCKASGYTFTDYYLNWVRQAPGQGLEWMGEIDPGSDSIYYNENLEGRVTITADTSTSTAYMELSSLRSEDTAVYYCARYGYSRYDVRFVYWGQGTLVTVSS VL: DIVMTQSPLSLPVTPGEPASISCRSSQSLVHSNGRTYLEWYLQKPGQSPQLLIYKVSNRISGVPDRFSGSGSGTDFTLKISRVEAEDVGVYYCFQGSHVPYTFGQGTKVEIK | 
2 |  | binds | anti-FGF-8 CDR-grafted antibody HV6LV6 (antibody, V domains shown, YB2/0-derived, vector pKANTEX1334HV6LV6 (from pKANTEX93, human constant regions)) VH: QVQLVQSGAEVARPGASVKVSCKASGYTFTDYYLNWVRQRSGQGLEWIGEIDPGSDSIYYNENLEGRVTITADTSTSTAYMELSSLRSEDTAVYFCARYGYSRYDVRFVYWGQGTLVTVSS VL: DVVMTQSPLSLPVSLGEPASISCRSSQSLVHSNGRTYLEWYLQKPGQSPKVLIYKVSNRISGVPDRFSGSGSGTDFTLKISRVEAEDVGVYFCFQGSHVPYTFGQGTKVEIK | 
3 |  | binds | anti-FGF-8 CDR-grafted antibody HV0LV0 (antibody, V domains shown, YB2/0-derived, vector pKANTEX1334HV0LV0 (from pKANTEX93, human constant regions)) VH: QVQLVQSGAEVKKPGASVKVSCKASGYTFTDYYLNWVRQAPGQGLEWMGEIDPGSDSIYYNENLEGRVTITADTSTSTAYMELSSLRSEDTAVYYCARYGYSRYDVRFVYWGQGTLVTVSS VL: DIVMTQSPLSLPVTPGEPASISCRSSQSLVHSNGRTYLEWYLQKPGQSPQLLIYKVSNRISGVPDRFSGSGSGTDFTLKISRVEAEDVGVYYCFQGSHVPYTFGQGTKVEIK | 
4 | binds |  | anti-FGF-8 CDR-grafted antibody HV0LV6/CHO (antibody, V domains shown, CHO/DG44-derived, vector pKANTEX1334HV0LV6; also called KM8034) VH: QVQLVQSGAEVKKPGASVKVSCKASGYTFTDYYLNWVRQAPGQGLEWMGEIDPGSDSIYYNENLEGRVTITADTSTSTAYMELSSLRSEDTAVYYCARYGYSRYDVRFVYWGQGTLVTVSS VL: DVVMTQSPLSLPVSLGEPASISCRSSQSLVHSNGRTYLEWYLQKPGQSPKVLIYKVSNRISGVPDRFSGSGSGTDFTLKISRVEAEDVGVYFCFQGSHVPYTFGQGTKVEIK | 

More lines, now with the values behind:

Row | Binder | binding result [1] | binding result [3] | other results
5 | anti-FGF-8 CDR-grafted antibody HV0LV3-1/CHO (antibody, V domains shown, CHO/DG44-derived; also called KM8036) VH: QVQLVQSGAEVKKPGASVKVSCKASGYTFTDYYLNWVRQAPGQGLEWMGEIDPGSDSIYYNENLEGRVTITADTSTSTAYMELSSLRSEDTAVYYCARYGYSRYDVRFVYWGQGTLVTVSS VL: DVVMTQSPLSLPVTPGEPASISCRSSQSLVHSNGRTYLEWYLQKPGQSPQVLIYKVSNRISGVPDRFSGSGSGTDFTLKISRVEAEDVGVYFCFQGSHVPYTFGQGTKVEIK | binds |  | 
6 | anti-FGF-8 chimeric antibody KM3334 (antibody, V domains shown, Same expression vector pKANTEX1334 as KM3034 (human gamma1 / kappa constant regions), expressed in YB2/0 cells; also called KiM3334; YB2/0-derived anti-FGF-8 chimeric antibody) VH: QVQLQQSGAEVARPGASVKLSCKASGYTFTDYYLNWVKQRSGQGLEWIGEIDPGSDSIYYNENLEGRATLTADKSSSTAYMQLNSLTSEDSAVYFCARYGYSRYDVRFVYWGQGTLVTVST VL: DVLMTQTPLSLPVSLGDQASISCRSSQSLVHSNGRTYLEWYLQKPGQSPKVLIYKVSNRISGVPDRFSGSGSGTDFTLKISRVEAEDLGVYFCFQGSHVPYTFGGGTKLEIK |  |  | binding result [2]: binds
7 | anti-FGF-8 chimeric antibody KM3034 (antibody, V domains shown, Human chimeric antibody with human gamma1 CH and human kappa CL (vector pKANTEX1334, from pKANTEX93), expressed in CHO/DG44 cells; also called CHO/DG44-derived anti-FGF-8 chimeric antibody) VH: QVQLQQSGAEVARPGASVKLSCKASGYTFTDYYLNWVKQRSGQGLEWIGEIDPGSDSIYYNENLEGRATLTADKSSSTAYMQLNSLTSEDSAVYFCARYGYSRYDVRFVYWGQGTLVTVST VL: DVLMTQTPLSLPVSLGDQASISCRSSQSLVHSNGRTYLEWYLQKPGQSPKVLIYKVSNRISGVPDRFSGSGSGTDFTLKISRVEAEDLGVYFCFQGSHVPYTFGGGTKLEIK | binds |  | 
8 | anti-FGF-8 CDR-grafted antibody HV0LV6 (antibody, V domains shown, YB2/0-derived, vector pKANTEX1334HV0LV6 (from pKANTEX93, human constant regions); also called KM8037) VH: QVQLVQSGAEVKKPGASVKVSCKASGYTFTDYYLNWVRQAPGQGLEWMGEIDPGSDSIYYNENLEGRVTITADTSTSTAYMELSSLRSEDTAVYYCARYGYSRYDVRFVYWGQGTLVTVSS VL: DVVMTQSPLSLPVSLGEPASISCRSSQSLVHSNGRTYLEWYLQKPGQSPKVLIYKVSNRISGVPDRFSGSGSGTDFTLKISRVEAEDVGVYFCFQGSHVPYTFGQGTKVEIK |  | binds | 
9 | anti-FGF-8 CDR-grafted antibody HV0LV4-3/CHO (antibody, V domains shown, CHO/DG44-derived; also called KM8035) VH: QVQLVQSGAEVKKPGASVKVSCKASGYTFTDYYLNWVRQAPGQGLEWMGEIDPGSDSIYYNENLEGRVTITADTSTSTAYMELSSLRSEDTAVYYCARYGYSRYDVRFVYWGQGTLVTVSS VL: DIVMTQSPLSLPVSLGEPASISCRSSQSLVHSNGRTYLEWYLQKPGQSPQVLIYKVSNRISGVPDRFSGSGSGTDFTLKISRVEAEDVGVYFCFQGSHVPYTFGQGTKVEIK | binds |  | FGF-8 neutralization activity (FGF-8-dependent growth of SC-3 cells) [4]: ~0.5 fold of the activity of KM3034
10 | anti-FGF-8 CDR-grafted antibody HV0LV3-3/CHO (antibody, V domains shown) VH: QVQLVQSGAEVKKPGASVKVSCKASGYTFTDYYLNWVRQAPGQGLEWMGEIDPGSDSIYYNENLEGRVTITADTSTSTAYMELSSLRSEDTAVYYCARYGYSRYDVRFVYWGQGTLVTVSS VL: DIVMTQSPLSLPVSLGEPASISCRSSQSLVHSNGRTYLEWYLQKPGQSPQVLIYKVSNRISGVPDRFSGSGSGTDFTLKISRVEAEDVGVYYCFQGSHVPYTFGQGTKVEIK |  |  | FGF-8 neutralization activity (FGF-8-dependent growth of SC-3 cells) [4]: ~0.5 fold of the activity of KM3034

From patent US20040253234A1 (Kyowa Kirin, published 2004)
